Assay results from patent publication US20230057263A1 (CYTOMX THERAPEUTICS, published 2023).
No end group written: not given here. *: point of attachment. Biotin = O=C1N[C@H]2[C@H](CS[C@H]2CCCCC(=O)*)N1; code X = not defined here; linker = not defined here

Experiments:
B X GNEEMGGITQTPYKV = target: T1, B X GNEEMGGITQTPYKV (reading uncertain); assay: Luminex bead assay [Cont.]
T1 construct: row 4 of the chart; also called biotinylated 15-mer, residues 3-17
T1 peptide: {Biotin-code X}-GNEEMGGITQTPYKV
Protocol: (§1) A set of experiments was performed to map the epitope recognized by the anti-CD3ε antibodies. In these experiments, the anti-CD3ε antibodies were assessed for binding to a collection of overlapping 15-mer peptides spanning amino acids 1-27 of human CD3ε protein using a Luminex bead assay. Control CD3 proteins, control peptides, or the test peptides were immobilized on Luminex beads and incubated with a panel of anti-CD3 antibodies. Binding of the anti-CD3 antibodies to the peptide/protein immobilized on the Luminex bead was detected by R-Phycoerythrin conjugated secondary antibody.
(§2) Recombinant CD3 proteins (human CD3d/e heterodimer and cynomolgus CD3-epsilon (Sinobiological)) and control peptides (#p1, #p2, and #p3) were conjugated to Luminex beads using standard EDC/Sulfo-NHS chemistry. The 15-mer test peptides were synthesized as biotinylated peptides at JPT Peptide Technologies Gmbh and were immobilized on streptavidin-conjugated Luminex beads that were made using standard EDC/Sulfo-NHS chemistry and streptavidin (Invitrogen Cat. No. 434301 lot 1626028A). The Luminex beads with immobilized peptides or reagents were incubated with 50 ul of a panel of anti-CD3 antibodies (1 ug/ml) for one hour at room temperature, washed two times, incubated with mixture of anti-human and anti-mouse IgG-RPE (Jackson Immunoresearch 109-116-097 and Southern Biotech 1030-09, respectively) for 30 mins at RT, washed three times, and analyzed in the Luminex instrument to assess the level of bound anti-CD3 antibodies.

B X NEEMGGITQTPYKVS = target: T2, B X NEEMGGITQTPYKVS (reading uncertain); assay: Luminex bead assay [Cont.]
T2 construct: row 5 of the chart; also called biotinylated 15-mer, residues 4-18
T2 peptide: {Biotin-code X}-NEEMGGITQTPYKVS
Protocol: as §1, §2

B X MGGITQTPYKVSISG [1] = target: T3, B X MGGITQTPYKVSISG (reading uncertain); assay: Luminex bead assay [Cont.]
T3 construct: row 8 of the chart; also called biotinylated 15-mer, residues 7-21
T3 peptide: {Biotin-code X}-MGGITQTPYKVSISG
Protocol: as §1, §2

B X TQTPYKVSISGTTVI = target: T4, B X TQTPYKVSISGTTVI (reading uncertain); assay: Luminex bead assay [Cont.]
T4 construct: row 12 of the chart; also called biotinylated 15-mer, residues 11-25
T4 peptide: {Biotin-code X}-TQTPYKVSISGTTVI
Protocol: as §1, §2

B X QTPYKVSISGTTVIL = target: T5, B X QTPYKVSISGTTVIL (reading uncertain); assay: Luminex bead assay [Cont.]
T5 construct: row 13 of the chart; also called biotinylated 15-mer, residues 12-26
T5 peptide: {Biotin-code X}-QTPYKVSISGTTVIL
Protocol: as §1, §2

B X TPYKVSISGTTVILT = target: T6, B X TPYKVSISGTTVILT (reading uncertain); assay: Luminex bead assay [Cont.]
T6 construct: row 14 of the chart; also called biotinylated 15-mer, residues 13-27
T6 peptide: {Biotin-code X}-TPYKVSISGTTVILT
Protocol: as §1, §2

B X QDGAEEMGGITQTP = target: T7, B X QDGAEEMGGITQTP (reading uncertain); assay: Luminex bead assay [Cont.]
T7 construct: row 18 of the chart; 14 residues; also called alanine-scan peptide N4A
T7 peptide: {Biotin-code X}-QDGAEEMGGITQTP
Protocol: as §1, §2

BSA alone = target: T8, BSA alone (bovine, UniProt P02769); assay: Luminex bead assay [Cont.]
T8 construct: carrier protein without peptide
Protocol: as §1, §2

[2] = target: T9, (H2N-KEFSELEQSGYYVCYPRGSNPEDA-OH) vCD3e #p3-BSA (conjugated to BSA); assay: Luminex bead assay, 1 ug/ml antibody [Cont.]
T9 construct: also called control peptide #p3
T9 peptide: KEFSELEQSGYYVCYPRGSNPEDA
Protocol: as §1, §2

B X DGNEEMGGITQTPYK = target: T10, B X DGNEEMGGITQTPYK (reading uncertain); assay: Luminex bead assay, 1 ug/ml antibody [Cont.]
T10 construct: row 3 of the chart; also called biotinylated 15-mer, residues 2-16
T10 peptide: {Biotin-code X}-DGNEEMGGITQTPYK
Protocol: as §1, §2

B X MGGITQTPYKVSISG [3] = target: T3, B X MGGITQTPYKVSISG; assay: Luminex bead assay, 1 ug/ml antibody [Cont.]
Protocol: as §1, §2

B X ITQTPYKVSISGTTV = target: T11, B X ITQTPYKVSISGTTV (reading uncertain); assay: Luminex bead assay, 1 ug/ml antibody [Cont.]
T11 construct: row 11 of the chart; also called biotinylated 15-mer, residues 10-24
T11 peptide: {Biotin-code X}-ITQTPYKVSISGTTV
Protocol: as §1, §2

B X ADGNEEMGGITQTPY = target: T12, B X ADGNEEMGGITQTPY (reading uncertain); assay: Luminex bead assay, 1 ug/ml antibody [Cont.]
T12 construct: row 15 of the chart; also called alanine-scan peptide Q1A
T12 peptide: {Biotin-code X}-ADGNEEMGGITQTPY
Protocol: as §1, §2

B X QAGNEEMGGITQTP = target: T13, B X QAGNEEMGGITQTP (reading uncertain); assay: Luminex bead assay, 1 ug/ml antibody [Cont.]
T13 construct: row 16 of the chart; also called alanine-scan peptide D2A
T13 peptide: {Biotin-code X}-QAGNEEMGGITQTP
Protocol: as §1, §2

B X QDGNAEMGGITQTP = target: T14, B X QDGNAEMGGITQTP (reading uncertain); assay: Luminex bead assay, 1 ug/ml antibody [Cont.]
T14 construct: row 19 of the chart; 14 residues; also called alanine-scan peptide E5A
T14 peptide: {Biotin-code X}-QDGNAEMGGITQTP
Protocol: as §1, §2

B X QDGNEAMGGITQTP = target: T15, B X QDGNEAMGGITQTP (reading uncertain); assay: Luminex bead assay, 1 ug/ml antibody [Cont.]
T15 construct: row 20 of the chart; 14 residues; also called alanine-scan peptide E6A
T15 peptide: {Biotin-code X}-QDGNEAMGGITQTP
Protocol: as §1, §2

B X QDGNEEMGAITQTP = target: T16, B X QDGNEEMGAITQTP (reading uncertain); assay: Luminex bead assay, 1 ug/ml antibody [Cont.]
T16 construct: row 23 of the chart; 14 residues; also called alanine-scan peptide G9A
T16 peptide: {Biotin-code X}-QDGNEEMGAITQTP
Protocol: as §1, §2

B X QDGNEEMGGIAQTP = target: T17, B X QDGNEEMGGIAQTP (reading uncertain); assay: Luminex bead assay, 1 ug/ml antibody [Cont.]
T17 construct: row 25 of the chart; 14 residues; also called alanine-scan peptide T11A
T17 peptide: {Biotin-code X}-QDGNEEMGGIAQTP
Protocol: as §1, §2

huCD3d/eCHO-E DT1331 = target: T18, huCD3d/eCHO-E DT1331 (human, UniProt P04234); assay: Luminex bead assay, 1 ug/ml antibody [Cont.]
T18 construct: recombinant, part of a CD3 delta/epsilon heterodimer; coupled to Luminex beads
Protocol: as §1, §2

[4] = target: T19, biotinylated 15-mer peptide corresponding to the CD3ε N-terminus (human, UniProt P07766 22-36, limits assumed, not fully specified; reading uncertain); assay: Luminex bead assay, 1 ug/ml antibody [Cont.]
T19 construct: domain: N-terminal 15-mer; Immobilised on streptavidin-conjugated Luminex beads; The text says 'peptides' in the plural, so more than one overlapping N-terminal 15-mer may be meant; also called N-terminal 15-mer; biotinylated N-terminal 15-mer
T19 peptide (looked up): {Biotin-linker}-QDGNEEMGGITQTPY
Protocol: as §1, §2

T8 sequence (P02769 25-607 limits assumed): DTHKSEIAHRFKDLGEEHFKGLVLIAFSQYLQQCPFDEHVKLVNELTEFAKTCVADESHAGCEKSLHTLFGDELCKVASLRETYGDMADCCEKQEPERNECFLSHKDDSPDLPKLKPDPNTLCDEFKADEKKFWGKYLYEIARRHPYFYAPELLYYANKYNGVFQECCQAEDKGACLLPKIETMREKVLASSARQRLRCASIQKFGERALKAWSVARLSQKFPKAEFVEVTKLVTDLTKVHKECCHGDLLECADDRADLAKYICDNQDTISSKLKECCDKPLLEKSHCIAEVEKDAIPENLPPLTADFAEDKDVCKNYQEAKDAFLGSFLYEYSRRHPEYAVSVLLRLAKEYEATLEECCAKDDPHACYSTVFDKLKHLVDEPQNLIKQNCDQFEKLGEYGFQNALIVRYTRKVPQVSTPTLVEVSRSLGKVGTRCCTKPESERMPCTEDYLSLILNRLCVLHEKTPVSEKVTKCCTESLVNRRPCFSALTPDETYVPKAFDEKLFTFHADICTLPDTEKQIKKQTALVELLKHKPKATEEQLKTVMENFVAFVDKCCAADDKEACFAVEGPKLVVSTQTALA
T18 sequence (P04234 22-105): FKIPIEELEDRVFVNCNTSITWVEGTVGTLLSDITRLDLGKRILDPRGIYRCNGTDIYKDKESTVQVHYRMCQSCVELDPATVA

B1: 6d59 (antibody, V domains shown)
VH: QVHLVESGGGVVQPGRSLRLSCAASGFKFRSYGMHWVRQAPGKGLEWVAIIWYDGSKRYYADSVKGRFTISRDNSKNTLYLQMSSLRAEDTAVYYCARDLITGTTDYWGQGTLVTVSS
VL: DVVMTQSPLSLPVTLGQPASISCRSSRSLVYSDGNTHLIWFQQRPGQSPRRLIYRVSNRVSGVPDRFSGSGSGTDFTLKISRVEAEDVGVYYCLQGAHWPYTFGQGTKLEIKR
notes: also called 6d59.1; VCD3-6d59.1
binding result (B X GNEEMGGITQTPYKV): no binding (tested: 1 ug/ml)
binding result (B X NEEMGGITQTPYKVS): no binding (tested: 1 ug/ml)
binding result (B X MGGITQTPYKVSISG [1]): no binding (tested: 1 ug/ml)
binding result (B X TQTPYKVSISGTTVI): no binding (tested: 1 ug/ml)
binding result (B X QTPYKVSISGTTVIL): no binding (tested: 1 ug/ml)
binding result (B X TPYKVSISGTTVILT): no binding (tested: 1 ug/ml)
binding result (B X QDGAEEMGGITQTP): no binding (tested: 1 ug/ml)
binding result (BSA alone): no binding (tested: 1 ug/ml)
Luminex signal [2]: 473
Luminex signal (B X DGNEEMGGITQTPYK): 404
Luminex signal (B X MGGITQTPYKVSISG [3]): 26.5
Luminex signal (B X ITQTPYKVSISGTTV): 29.5
Luminex signal (B X ADGNEEMGGITQTPY): 11300
Luminex signal (B X QAGNEEMGGITQTP): 45
Luminex signal (B X QDGNAEMGGITQTP): 483
Luminex signal (B X QDGNEAMGGITQTP): 1480
Luminex signal (B X QDGNEEMGAITQTP): 2660
Luminex signal (B X QDGNEEMGGIAQTP): 2910
Luminex signal (huCD3d/eCHO-E DT1331): 23200
Luminex signal [4]: 3160
